The values below come from article PMC4765788, “Role of a chalcone isomerase-like protein in flavonoid biosynthesis in Arabidopsis thaliana” (Journal of Experimental Botany, 2015).

The data set concerns the molecule itself. As to the kind of experiment: native gel or EMSA; purified recombinant protein run on a non-denaturing PAGE gel.

B1: recombinant TT5 protein (chalcone isomerase), His-tagged (enzyme, Arabidopsis thaliana, UniProt P41088 1-246, looked up)
chain: MSSSNACASPSPFPAVTKLHVDSVTFVPSVKSPASSNPLFLGGAGVRGLDIQGKFVIFTVIGVYLEGNAVPSLSVKWKGKTTEELTESIPFFREIVTGAFEKFIKVTMKLPLTGQQYSEKVTENCVAIWKQLGLYTDCEAKAVEKFLEIFKEETFPPGSSILFALSPTGSLTVAFSKDDSIPETGIAVIENKLLAEAVLESIIGKNGVSPGTRLSVAERLSQLMMKNKDEKEVSDHSVEEKLAKEN
notes: TT5, chalcone isomerase, Arabidopsis thaliana, At3g55120; ORF cloned into pQE-30; pQE-30 usually adds an N-terminal His6 tag (surmised); also called CHI
Regarding B1, the “stoichiometry N” value worked out at 4.
